In patent publication US20250340881A1, “PHARMACEUTICAL COMPOSITION FOR TREATING CANCER COMPRISING FOXM1 MUTANT OR FOXM1 SHRNA” (Industry-University Cooperation Foundation Hanyang …, priority 2022, published 2025):

B1: FoxM1 WT: wild-type FoxM1 protein (SEQ ID NO: 1) over-expressed by lentivirus in A549 cells (protein, listed as Homo sapiens)
chain: MKTSPRRPLILKRRRLPLPVQNAPSETSEEEPKRSPAQQESNQAEASKEVAESNSCKFPAGIKIINHPTMPNTQVVAIPNNANIHSIITALTAKGKESGSSGPNKFILISCGGAPTQPPGLRPQTQTSYDAKRTEVTLETLGPKPAARDVNLPRPPGALCEQKRETCDGEAAGCTINNSLSNIQWLRKMSSDGLGSRSIKQEMEEKENCHLEQRQVKVEEPSRPSASWQNSVSERPPYSYMAMIQFAINSTERKRMTLKDIYTWIEDHFPYFKHIAKPGWKNSIRHNLSLHDMFVRETSANGKVSFWTIHPSANRYLTLDQVFKQQQKRPNPELRRNMTIKTELPLGARRKMKPLLPRVSSYLVPIQFPVNQSLVLQPSVKVPLPLAASLMSSELARHSKRVRIAPKVLLAEEGIAPLSSAGPGKEEKLLFGEGFSPLLPVQTIKEEEIQPGEEMPHLARPIKVESPPLEEWPSPAPSFKEESSHSWEDSSQSPTPRPKKSYSGLRSPTRCVSEMLVIQHRERRERSRSRRKQHLLPPCVDEPELLFSEGPSTSRWAAELPFPADSSDPASQLSYSQEVGGPFKTPIKETLPISSTPSKSVLPRTPESWRLTPPAKVGGLDFSPVQTSQGASDPLPDPLGLMDLSTTPLQSAPPLESPQRLLSSEPLDLISVPFGNSSPSDIDVPKPGSPEPQVSGLAANRSLTEGLVLDTMNDSLSKILLDISFPGLDEDPLGPDNINWSQFIPELQ

Assays:
[1] = tested on: A549 lung cancer cells; assay: Real-time PCR of EMT, M2-inducing and immune evasion factors in A549 cells treated with Thiostrepton; format: cell-based; conditions: 5 μM, 48 h, Mock and S25E cells
[2] = tested on: A549 cells; assay: PD-L1 (CD274) mRNA in A549 cells by real-time PCR; format: cell-based; conditions: A549 cells expressing the protein
Description: To examine the mRNA expression levels of PD-1 and PD-L1, which are involved in solid tumor immune evasion, in THP-1 cells and the cells expressing the FoxM1 phosphorylated point mutant, the expression of PD-1 (CD279) mRNA, an immune evasion factor, was measured by qRT-PCR in THP-1 monocytes co-cultured with A549^S25E cells for 48 h (FIG. 7B). It was observed that the expression of mRNA of PD-L1 (CD274), an immune evasion factor, increased by 2 folds in the A549^S25E cells expressing the phosphorylated point mutant compared to the control group.

[3] = tested on: A549 lung cancer cells; assay: EMT marker expression (immunoblot, real-time PCR) in A549 cells expressing FoxM1 WT or mutants; format: cell-based; conditions: FoxM1 WT
Text: To establish a stabilized cell line expressing WT, phosphorylation, and non-phosphorylated point mutants of FoxM1 in lung cancer cells, A549 cells were first infected with pLVX-Tet3G expressing lentivirus, and the infected cells were selected by treating with G418 for 5 days. The selected A549Tet3G cells were infected with lentiviruses expressing WT and phosphorylated point mutants (S25E, S361E, S715E) and non-phosphorylated point mutants (S25A, S361A, S715A) of FoxM1, and then treated with puromycin for 48 hours to establish a stabilized cell line. The established cells were treated with 2 μg/ml of doxycycline to induce expression of WT, phosphorylation, and non-phosphorylated point mutants of FoxM1, and the mRNA and protein expression levels of each FoxM1 point mutant were determined to confirm whether they were well expressed. As shown in FIG. 4A and FIG. 4B, it was confirmed that the WT and each point mutant form of FoxM1 were well expressed through mRNA and protein expression levels. It was observed that the expression levels of N-cadherin and vimentin were higher, and the expression levels of E-cadherin were lower in lung cancer cells expressing the phosphorylated form of FoxM1, specifically, phosphorylated at the phosphorylation site S25, compared to the cells expressing the non-phosphorylated form of FoxM1. In addition, when it was examined whether the expression of these phosphorylation and non-phosphorylated point mutants of FoxM1 affected cell proliferation, it was observed that it had no significant effect on cell proliferation (FIG. 4C).
To establish a stabilized cell line expressing FoxM1 WT in A549 lung cancer cells, first, pLVX-Tet3G expressing lentivirus was infected into cells, and the infected cells were selected by treating 500 μg/ml of G418 for 5 days. The selected A549^Tet3G cells were infected with lentiviruses expressing FoxM1 WT or Mock, and the stabilized cell lines were established by treating with 2 μg/ml of puromycin for 48 hours. After inducing the expression of FoxM1 WT by treating the established cells with 2 μg/ml of doxycycline, the protein expression was observed by immunoblot.

[4] = tested on: THP-1 cells; assay: M1 and M2 marker mRNA in THP-1 cells co-cultured with FoxM1-expressing A549 cells; format: cell-based, human; conditions: co-culture 48 h
Text: In the animal tissues, it was confirmed that both PD-L1 protein expression and CD274 mRNA expression were increased in cancer cells expressing FoxM1 (FIG. 5D, 5E). […] From the results described above, we investigated whether FoxM1 phosphorylated point mutant (S25E) affects the polarization of macrophages in the tumor microenvironment. After co-culturing human monocyte THP-1 cells and the cell groups over-expressing FoxM1 point mutants, M1 and M2 markers were examined in THP-1 cells.
Next, an expression suppression system for suppressing FoxM1 expression was established to observe whether the FoxM1 phosphorylated point mutant (S25E) directly affects polarization to M2 macrophages. First, to inhibit the expression of mRNA of FoxM1, a pLKO-puro.1-hFoxM1 plasmid was produced using a pLKO-puro.1 vector to construct shRNAs targeting nucleotide sequences at 709-729 positions in the human FoxM1 mRNA sequence. The following sequences can be used as target sequences for human FoxM1 shRNA production, and oligonucleotides with the following sequences can be used as primers for shRNA production. The gene accession number for human FoxM1 mRNA in PubMed is NM_001243088.2, and it contains 3507 bp. The following primers were used for shRNA production: 5′-ccgg-[…]-ctcgag-[…]-tttttg-3′ (forward primer) and 5′-aattcaaaaa-AGCAAG AGATGGAGGAAAAGG-ctcgag-[…]-3′ (reverse primer). Then, after purifying and concentrating each lentivirus for expression of the produced FoxM1 shRNA, it was constructed by infecting a lung cancer cell line, A549 cells expressing FoxM1, with the virus. The mRNA expression of M2 markers, CD163, CD206, and VEGFA, was examined after co-culturing lung cancer cells (4×10^4 cells/ml) with suppressed FoxM1 expression and THP-1 cells (1.2×10^5 cells/ml) for 48 h. […] When co-culturing with cancer cells expressing the FoxM1 variant S25E, it was confirmed that the M2 markers CD163, CD206, and VEGFA were all increased by 2 folds or more in THP1 cells compared to the control group (Mock_shCtrl) (FIG. 6D).
After co-culturing the FoxM1 WT protein over-expressed cancer cells (4×10^4 cells/ml) and THP-1 cells (1.2×10^5 cells/ml) for 48 h, the mRNA expression of M1 markers INOS and IL12B was not altered, while the mRNA expression of all the M2 markers IL10, CD163, CD206, TGFB1, and VEGFA was increased in the FoxM1 WT (FIG. 13A). Among them, CD206, TGFB1, and VEGFA had been known as markers for M2d-tumor-associated macrophages (M2d-TAM) (JAYASINGAM, Sharmilla Devi, et al., Frontiers in Oncology (2020) 9: 1512.).

[5] = tested on: lung tissues; assay: CD68 and CD163 immunostaining and immunoblot of lung tissues of injected mice; format: in vivo; conditions: lung tissues of injected mice
Description: Additionally, the increase of macrophages around the tumor was examined by immunoblot using lung tissue lysates. […] Through the results of this study, it could be observed that the non-phosphorylated point mutant had the effect of inhibiting polarization into tumor-associated macrophages.
Furthermore, CD68, a marker for a broad range of macrophages, and CD163, a marker for tumor-associated macrophages, were analyzed in lung tissues of mice using immunostaining. It was determined that the expression of both CD68 and CD163 markers was increased in the lung tissues of mice injected with the FoxM1 WT protein over-expressed cells (FIG. 13D). Through the present results, it could be observed that there was an effect of promoting the polarization of M2 tumor-associated macrophages in lung cancer cells expressing the FoxM1 WT protein.

[6] = tested on: A549 cells; assay: M2d-inducing factor mRNA in A549 cells after co-culture with THP-1 cells; format: cell-based; conditions: co-culture with THP-1 48 hours
Description: (§1) In addition, after co-culturing of human monocyte THP-1 cells and cell groups over-expressing FoxM1 point mutations for 48 hours under the conditions where the previous experiments were performed, the mRNA expression levels of M2d-inducing factors IL4, IL6, IL10, and VEGFA in A549 cells expressing FoxM1 S25E were analyzed. […] The amounts of TGFB1 and VEGFA proteins in the medium cultured for 48 h with A549 cells (4×10^4 cells/ml) expressing FoxM1 variants were measured by ELISA.

[7] = tested on: A549 cells; assay: ELISA of TGFB1 and VEGFA proteins in A549 culture medium; format: cell-based; conditions: medium cultured 48 h
Description: as §1

| Molecule | expression of IL6, VEGFA and CD274 (PD-L1) [1] | expression of mesenchymal markers CDH2, vimentin, SNAI1 and SNAI2 [1] | expression of IL6, VEGFA and CD274 (PD-L1) ([1]; listed as thiostepton) | expression of mesenchymal markers CDH2, vimentin, SNAI1 and SNAI2 ([1]; listed as thiostepton) | mRNA expression of PD-L1 (CD274) compared to the control group [2] | FoxM1 expression, real-time polymerase chain reaction [3] [folds] | expression of E-cadherin, real-time polymerase chain reaction (reduced by) [3] [folds] | expression of N-cadherin, real-time polymerase chain reaction [3] [folds] | expression of vimentin, real-time polymerase chain reaction [3] [folds] | expression of E-cadherin, immunoblot (decreased by) ([3]; doxycycline 2 μg/ml) [folds] | expression of N-cadherin, immunoblot ([3]; doxycycline 2 μg/ml) [folds] | expression of vimentin, immunoblot ([3]; doxycycline 2 μg/ml) [folds] | mRNA expression of M1 markers INOS and IL12B in THP-1 cells [4] | mRNA expression of M2 markers IL10, CD163, CD206, TGFB1 and VEGFA in THP-1 cells (in words) [4] | expression of CD68 and CD163 markers, immunostaining (in words) [5] | mRNA expression levels of M2d-inducing factors IL4, IL6, IL10 and VEGFA in A549 cells (in words) [6] | amounts of TGFB1 and VEGFA proteins in medium (in words) [7] |
| --- | --- | --- | --- | --- | --- | --- | --- | --- | --- | --- | --- | --- | --- | --- | --- | --- | --- |
| C=C(NC(=O)C(=C)NC(=O)c1csc(C2=N[C@@H]3c4csc(n4)[C@H]4NC(=O)c5csc(n5)[C@H]([C@](C)(O)[C@@H](C)O)NC(=O)[C@H]5CSC(=N5)/C(=C/C)NC(=O)[C@H]([C@@H](C)O)NC(=O)c5csc(n5)[C@]3(CC2)NC(=O)[C@H](C)NC(=O)C(=C)NC(=O)[C@H](C)NC(=O)[C@H]([C@@H](C)CC)N[C@@H]2C=Cc3c([C@H](C)O)cc(nc3[C@H]2O)C(=O)O[C@@H]4C)n1)C(N)=O [Thiostrepton] | significantly reduced | significantly reduced | reduced | reduced | – | – | – | – | – | – | – | – | – | – | – | – | – |
| B1 | – | – | – | – | about 2.3 folds | 4.4 | 0.8 | 1.5 | 1.7 | 0.6 | 2.2 | 2.8 | not altered | increased | increased | increased | markedly increased |
